Source: article PMC8567202, “Phosphoinositide-binding activity of Smad2 is essential for its function in TGF-β signaling” (The Journal of Biological Chemistry, 2021)

Columns and labels:
[1] = SPR membrane binding to POPC/POPS/PI(3,4,5)P3 vesicles; conditions: POPC/POPS/PI(3,4,5)P3 (or PIP3) (77:20:3), 1 μM Smad2
Experimental: Figure 1 Membrane-binding properties of Smad2 FL protein and MH2 domain determined by SPR analysis.A, PtdInsP selectivity of Smad2-FL determined using POPC/POPS/PtdInsP (77:20:3 in mole ratio) LUVs coated on the L1 sensor chip. The protein concentration was 100 nM. PIP3 indicates PI(3,4,5)P3. B, determination of Kd for binding of Smad2 FL to different LUVs. The protein concentration was varied from 0 to 500 nM. C, PI(4,5)P2 concentration dependence of membrane binding of Smad2-FL determined using POPC/POPS/PI(4,5)P2 (77-x:20:x, x = 0–5 mol%) LUVs. The protein concentration was 100 nM. D, PtdInsP selectivity of the Smad2 MH2 domain determined using POPC/POPS/PtdInsP (77:20:3 in mole ratio) LUVs. […] RUmax values determined for different vesicles at 1 μM Smad2 were: 280 ± 20 for POPC/POPS/PI(4,5)P2 (77:20:3), 370 ± 10 for POPC/POPS/PI(3,4)P2 (77:20:3), 400 ± 15 for POPC/POPS/PI(3,4,5)P3 (or PIP3) (77:20:3), 400 ± 20 for POPC/POPS/PI(3)P (77:20:3), and 380 ± 20 for POPC/POPS (80:20). […]
All SPR measurements were performed at 23 °C in 20 mM Tris, pH 7.4, containing 0.16 M NaCl using a lipid-coated L1 chip in the BIACORE X-100 system (GE Healthcare) as described previously ([19], [38]). […] Sensorgrams were collected for both membrane association and dissociation but the only the association phases were further analyzed because the dissociation phases were often too slow for analysis. […]

[2] = SPR PtdInsP selectivity; type: binding; conditions: RU/RUmax, 100 nM protein
Excerpt: It has been generally thought that Smad2 and Smad3 are targeted to the activated TGF-β signaling complex by direct interaction with TβRI ([1], [2]) or via SARA ([7]). However, it has been shown that many cytosolic proteins that are targeted to membrane proteins or membrane-anchored signaling complexes have affinity for membrane lipids ([14]), phosphoinositides (PtdInsPs) in particular, and that their membrane recruitment is mediated by coincident lipid–protein and protein–protein interactions ([15], [16]). […] We thus measured the binding of bacterially expressed Smad2 to large unilamellar vesicles (LUVs) containing various lipids by surface plasmon resonance (SPR) analysis ([19], [20]). Lipid selectivity determined by SPR analysis is typically reported as the relative resonance unit (RU) values for different lipids at a given protein concentration ([21], [22]). […] We thus estimated RUmax for different lipid species by employing the highest protein concentration experimentally feasible (e.g., 1 μM) and determined RU/RUmax for different lipids at the protein concentration that allows robust comparison (e.g., 100 nM). Once the lipid selectivity has been determined by this semiquantitative approach, we then rigorously determined and compared Kd values for selected lipids for more accurate quantitative determination of lipid selectivity. […]

B1: Smad2 WT: bacterially expressed full-length Smad2 wild-type (protein)
chain: MSSILPFTPPVVKRLLGWKKSAGGSGGAGGGEQNGQEEKWCEKAVKSLVKKLKKTGRLDELEKAITTQNCNTKCVTIPSTCSEIWGLSTANTVDQWDTTGLYSFSEQTRSLDGRLQVSHRKGLPHVIYCRLWRWPDLHSHHELKAIENCEYAFNLKKDEVCVNPYHYQRVETPVLPPVLVPRHTEILTELPPLDDYTHSIPENTNFPAGIEPQSNYIPETPPPGYISEDGETSDQQLNQSMDTGSPAELSPTTLSPVNHSLDLQPVTYSEPAFWCSIAYYELNQRVGETFHASQPSLTVDGFTDPSNSERFCLGLLSNVNRNATVEMTRRHIGRGVRLYYIGGEVFAECLSDSAIFVQSPNCNQRYGWHPATVCKIPPGCNLKIFNNQEFAALLAQSVNQGFEAVYQLTRMCTIRMSFVKGWGAEYRRQTVTSTPCWIELHLNGPLQWLDKVLTQMGSPSVRCSSMS
modifications: left off: His6, N-terminal, state not stated
notes: bacterially expressed full-length Smad2 wild-type
In the case of B1, the RUmax [1] is reported as 400 ± 15 and the PtdInsP selectivity [2] is reported as “significant degree of selectivity for POPC/POPS/PI(4,5)P2 (77:20:3) over other PtdInsP-containing vesicles”.
